Measured values: paper PMC9867772

Target: Anthrol reductase CbAR from Cercospora sp. JNU001 (Cercospora sp. JNU001)
Experiment: SEC; purified CbAR on gel filtration (Supplementary Fig. 1b, c); the column of the purification was Hiload 16/600 Superdex 200 pg in 25 mM Tris-HCl pH 8.0, 150 mM NaCl

stoichiometry N: 2
Substance: Anthrol reductase CbAR from Cercospora sp. JNU001 (enzyme)
